{
  "source": "paper PMC12102759",
  "about": "(2025)",
  "parents": {"B1": {"name": "PEX5 peptide 110-125 (Peroxisomal targeting signal 1 receptor), 16-mer library wild type / PEX14 Pex14 (PEX14 PEX14, residues 16-84) (parent complex)", "chain 1": "ADLALSENWAQEFLAA", "chain 2": "TPGSENVLPREPLIATAVKFLQNSRVRQSPLATRRAFLKKKGLTDEEIDMAFQQSGTAADEPSSLGPAT"}, "B2": {"name": "RNF115 peptide 67-82 (E3 ubiquitin-protein ligase RNF115), 16-mer library wild type / MDM2 SWIB (MDM2 SWIB/MDM2 domain, residues 17-125) (parent complex)", "chain 1": "TTTHFAELWGHLDHTM", "chain 2": "SQIPASEQETLVRPKPLLLKLLKSVGAQKDTYTMKEVLFYLGQYIMTKRLYDEKQQHIVYCSNDLLGDLFGVPSFSVKEHRKIYTMIYRNLVVVNQQESSDSGTSVSEN"}},
  "data": [
    {"variants_of": "B1", "test": "proteomic peptide phage display deep mutational scan (ProP-PD DMS): M13 P8 16-mer library selected against immobilised GST-tagged bait for four days (rounds), NGS of the eluted pools per day and pseudo-replica; bait immobilised on MaxiSorp plates (10 µg), library pre-cleared on GST, 2 h binding at 4 °C, five washes; one round per day, days 1-4; value from days 2 and 3", "values": [
      {"variant": "chain 1 D2L", "screen value": "0.000809 average fractional NGS count over selection days 2 and 3 (reads of this peptide / all reads for the bait, averaged over …"},
      {"variant": "chain 1 D2P", "screen value": "0.00139 average fractional NGS count over selection days 2 and 3 (reads of this peptide / all reads for the bait, averaged over …"},
      {"variant": "chain 1 D2Y", "screen value": "0.000446 average fractional NGS count over selection days 2 and 3 (reads of this peptide / all reads for the bait, averaged over …"},
      {"variant": "chain 1 D2R", "screen value": "0.000895 average fractional NGS count over selection days 2 and 3 (reads of this peptide / all reads for the bait, averaged over …"},
      {"variant": "chain 1 S6N", "screen value": "0.000624 average fractional NGS count over selection days 2 and 3 (reads of this peptide / all reads for the bait, averaged over …"},
      {"variant": "chain 1 S6G", "screen value": "0.000749 average fractional NGS count over selection days 2 and 3 (reads of this peptide / all reads for the bait, averaged over …"},
      {"variant": "chain 1 S6E", "screen value": "0.00164 average fractional NGS count over selection days 2 and 3 (reads of this peptide / all reads for the bait, averaged over …"},
      {"variant": "chain 1 S6H", "screen value": "0.00186 average fractional NGS count over selection days 2 and 3 (reads of this peptide / all reads for the bait, averaged over …"},
      {"variant": "chain 1 S6R", "screen value": "0.00161 average fractional NGS count over selection days 2 and 3 (reads of this peptide / all reads for the bait, averaged over …"},
      {"variant": "chain 1 S6F", "screen value": "0.00174 average fractional NGS count over selection days 2 and 3 (reads of this peptide / all reads for the bait, averaged over …"},
      {"variant": "chain 1 E12H", "screen value": "0.00205 average fractional NGS count over selection days 2 and 3 (reads of this peptide / all reads for the bait, averaged over …"},
      {"variant": "chain 1 E12P", "screen value": "0.000686 average fractional NGS count over selection days 2 and 3 (reads of this peptide / all reads for the bait, averaged over …"},
      {"variant": "chain 1 E12W", "screen value": "0.0033 average fractional NGS count over selection days 2 and 3 (reads of this peptide / all reads for the bait, averaged over …"},
      {"variant": "chain 1 E12V", "screen value": "0.00245 average fractional NGS count over selection days 2 and 3 (reads of this peptide / all reads for the bait, averaged over …"},
      {"variant": "chain 1 L14K", "screen value": "0.000342 average fractional NGS count over selection days 2 and 3 (reads of this peptide / all reads for the bait, averaged over …"},
      {"variant": "chain 1 L14Q", "screen value": "0.000996 average fractional NGS count over selection days 2 and 3 (reads of this peptide / all reads for the bait, averaged over …"},
      {"variant": "chain 1 Q11H", "screen value": "0.00141 average fractional NGS count over selection days 2 and 3 (reads of this peptide / all reads for the bait, averaged over …"},
      {"variant": "chain 1 Q11L", "screen value": "0.00081 average fractional NGS count over selection days 2 and 3 (reads of this peptide / all reads for the bait, averaged over …"},
      {"variant": "chain 1 E7P", "screen value": "0.00244 average fractional NGS count over selection days 2 and 3 (reads of this peptide / all reads for the bait, averaged over …"},
      {"variant": "chain 1 E7N", "screen value": "0.00129 average fractional NGS count over selection days 2 and 3 (reads of this peptide / all reads for the bait, averaged over …"},
      {"variant": "chain 1 E7F", "screen value": "0.000467 average fractional NGS count over selection days 2 and 3 (reads of this peptide / all reads for the bait, averaged over …"},
      {"variant": "chain 1 E7W", "screen value": "0.0042 average fractional NGS count over selection days 2 and 3 (reads of this peptide / all reads for the bait, averaged over …"},
      {"variant": "chain 1 E7Y", "screen value": "0.00176 average fractional NGS count over selection days 2 and 3 (reads of this peptide / all reads for the bait, averaged over …"},
      {"variant": "chain 1 E7L", "screen value": "0.00102 average fractional NGS count over selection days 2 and 3 (reads of this peptide / all reads for the bait, averaged over …"},
      {"variant": "chain 1 A4I", "screen value": "0.000694 average fractional NGS count over selection days 2 and 3 (reads of this peptide / all reads for the bait, averaged over …"},
      {"variant": "chain 1 A4P", "screen value": "0.00132 average fractional NGS count over selection days 2 and 3 (reads of this peptide / all reads for the bait, averaged over …"},
      {"variant": "chain 1 A10W", "screen value": "0.00181 average fractional NGS count over selection days 2 and 3 (reads of this peptide / all reads for the bait, averaged over …"},
      {"variant": "chain 1 A10T", "screen value": "0.000469 average fractional NGS count over selection days 2 and 3 (reads of this peptide / all reads for the bait, averaged over …"},
      {"variant": "chain 1 A10Y", "screen value": "0.0104 average fractional NGS count over selection days 2 and 3 (reads of this peptide / all reads for the bait, averaged over …"},
      {"variant": "chain 1 F13H", "screen value": "0.00342 average fractional NGS count over selection days 2 and 3 (reads of this peptide / all reads for the bait, averaged over …"},
      {"variant": "chain 1 F13R", "screen value": "0.000386 average fractional NGS count over selection days 2 and 3 (reads of this peptide / all reads for the bait, averaged over …"},
      {"variant": "chain 1 L3N", "screen value": "0.000429 average fractional NGS count over selection days 2 and 3 (reads of this peptide / all reads for the bait, averaged over …"},
      {"variant": "chain 1 L3A", "screen value": "0.00097 average fractional NGS count over selection days 2 and 3 (reads of this peptide / all reads for the bait, averaged over …"},
      {"variant": "chain 1 L3M", "screen value": "0.00299 average fractional NGS count over selection days 2 and 3 (reads of this peptide / all reads for the bait, averaged over …"},
      {"variant": "chain 1 L3Q", "screen value": "0.00182 average fractional NGS count over selection days 2 and 3 (reads of this peptide / all reads for the bait, averaged over …"},
      {"variant": "chain 1 L3T", "screen value": "0.000563 average fractional NGS count over selection days 2 and 3 (reads of this peptide / all reads for the bait, averaged over …"},
      {"variant": "chain 1 L5H", "screen value": "0.00347 average fractional NGS count over selection days 2 and 3 (reads of this peptide / all reads for the bait, averaged over …"},
      {"variant": "chain 1 N8W", "screen value": "0.00165 average fractional NGS count over selection days 2 and 3 (reads of this peptide / all reads for the bait, averaged over …"},
      {"variant": "chain 1 N8L", "screen value": "0.000366 average fractional NGS count over selection days 2 and 3 (reads of this peptide / all reads for the bait, averaged over …"},
      {"variant": "chain 1 N8P", "screen value": "0.000567 average fractional NGS count over selection days 2 and 3 (reads of this peptide / all reads for the bait, averaged over …"},
      {"variant": "chain 1 N8D", "screen value": "0.00107 average fractional NGS count over selection days 2 and 3 (reads of this peptide / all reads for the bait, averaged over …"},
      {"variant": "chain 1 N8G", "screen value": "0.00135 average fractional NGS count over selection days 2 and 3 (reads of this peptide / all reads for the bait, averaged over …"},
      {"variant": "chain 1 A1G", "screen value": "0.000525 average fractional NGS count over selection days 2 and 3 (reads of this peptide / all reads for the bait, averaged over …"},
      {"variant": "chain 1 A1N", "screen value": "0.00108 average fractional NGS count over selection days 2 and 3 (reads of this peptide / all reads for the bait, averaged over …"}
    ]},
    {"variants_of": "B2", "test": "proteomic peptide phage display deep mutational scan (ProP-PD DMS): M13 P8 16-mer library selected against immobilised GST-tagged bait for four days (rounds), NGS of the eluted pools per day and pseudo-replica; bait immobilised on MaxiSorp plates (10 µg), library pre-cleared on GST, 2 h binding at 4 °C, five washes; one round per day, days 1-4; value from days 2 and 3", "values": [
      {"variant": "chain 1 T15G", "screen value": "0.0009 average fractional NGS count over selection days 2 and 3 (reads of this peptide / all reads for the bait, averaged over …"},
      {"variant": "chain 1 T15M", "screen value": "0.00385 average fractional NGS count over selection days 2 and 3 (reads of this peptide / all reads for the bait, averaged over …"},
      {"variant": "chain 1 T15H", "screen value": "0.000116 average fractional NGS count over selection days 2 and 3 (reads of this peptide / all reads for the bait, averaged over …"},
      {"variant": "chain 1 T15W", "screen value": "0.00561 average fractional NGS count over selection days 2 and 3 (reads of this peptide / all reads for the bait, averaged over …"},
      {"variant": "chain 1 T15L", "screen value": "7.38e-05 average fractional NGS count over selection days 2 and 3 (reads of this peptide / all reads for the bait, averaged over …"},
      {"variant": "chain 1 T15A", "screen value": "0.000886 average fractional NGS count over selection days 2 and 3 (reads of this peptide / all reads for the bait, averaged over …"},
      {"variant": "chain 1 T15V", "screen value": "0.00407 average fractional NGS count over selection days 2 and 3 (reads of this peptide / all reads for the bait, averaged over …"},
      {"variant": "chain 1 T15Y", "screen value": "0.00205 average fractional NGS count over selection days 2 and 3 (reads of this peptide / all reads for the bait, averaged over …"},
      {"variant": "chain 1 T15F", "screen value": "0.00191 average fractional NGS count over selection days 2 and 3 (reads of this peptide / all reads for the bait, averaged over …"},
      {"variant": "chain 1 H14E", "screen value": "9.03e-05 average fractional NGS count over selection days 2 and 3 (reads of this peptide / all reads for the bait, averaged over …"},
      {"variant": "chain 1 H14T", "screen value": "0.000601 average fractional NGS count over selection days 2 and 3 (reads of this peptide / all reads for the bait, averaged over …"},
      {"variant": "chain 1 H14M", "screen value": "0.00126 average fractional NGS count over selection days 2 and 3 (reads of this peptide / all reads for the bait, averaged over …"},
      {"variant": "chain 1 H14A", "screen value": "0.00138 average fractional NGS count over selection days 2 and 3 (reads of this peptide / all reads for the bait, averaged over …"},
      {"variant": "chain 1 H14Y", "screen value": "0.00813 average fractional NGS count over selection days 2 and 3 (reads of this peptide / all reads for the bait, averaged over …"},
      {"variant": "chain 1 H14S", "screen value": "0.00046 average fractional NGS count over selection days 2 and 3 (reads of this peptide / all reads for the bait, averaged over …"},
      {"variant": "chain 1 H14L", "screen value": "0.00317 average fractional NGS count over selection days 2 and 3 (reads of this peptide / all reads for the bait, averaged over …"},
      {"variant": "chain 1 H14V", "screen value": "0.00211 average fractional NGS count over selection days 2 and 3 (reads of this peptide / all reads for the bait, averaged over …"},
      {"variant": "chain 1 L12M", "screen value": "0.000189 average fractional NGS count over selection days 2 and 3 (reads of this peptide / all reads for the bait, averaged over …"},
      {"variant": "chain 1 L12I", "screen value": "0.000166 average fractional NGS count over selection days 2 and 3 (reads of this peptide / all reads for the bait, averaged over …"},
      {"variant": "chain 1 D13R", "screen value": "0.000392 average fractional NGS count over selection days 2 and 3 (reads of this peptide / all reads for the bait, averaged over …"},
      {"variant": "chain 1 D13N", "screen value": "0.000525 average fractional NGS count over selection days 2 and 3 (reads of this peptide / all reads for the bait, averaged over …"},
      {"variant": "chain 1 D13M", "screen value": "0.00561 average fractional NGS count over selection days 2 and 3 (reads of this peptide / all reads for the bait, averaged over …"},
      {"variant": "chain 1 D13S", "screen value": "0.00426 average fractional NGS count over selection days 2 and 3 (reads of this peptide / all reads for the bait, averaged over …"},
      {"variant": "chain 1 D13A", "screen value": "0.00127 average fractional NGS count over selection days 2 and 3 (reads of this peptide / all reads for the bait, averaged over …"},
      {"variant": "chain 1 D13P", "screen value": "0.00074 average fractional NGS count over selection days 2 and 3 (reads of this peptide / all reads for the bait, averaged over …"},
      {"variant": "chain 1 D13F", "screen value": "0.00274 average fractional NGS count over selection days 2 and 3 (reads of this peptide / all reads for the bait, averaged over …"},
      {"variant": "chain 1 D13H", "screen value": "0.000247 average fractional NGS count over selection days 2 and 3 (reads of this peptide / all reads for the bait, averaged over …"},
      {"variant": "chain 1 D13T", "screen value": "0.0095 average fractional NGS count over selection days 2 and 3 (reads of this peptide / all reads for the bait, averaged over …"},
      {"variant": "chain 1 D13Q", "screen value": "0.00218 average fractional NGS count over selection days 2 and 3 (reads of this peptide / all reads for the bait, averaged over …"},
      {"variant": "chain 1 D13G", "screen value": "0.00549 average fractional NGS count over selection days 2 and 3 (reads of this peptide / all reads for the bait, averaged over …"},
      {"variant": "chain 1 D13W", "screen value": "0.000615 average fractional NGS count over selection days 2 and 3 (reads of this peptide / all reads for the bait, averaged over …"}
    ]}
  ]
}
